The results in this text go back to article PMC3627646.

The target in assay [1] is Ankyrin2, large isoform (Ank2-L) (Drosophila (endogenous in larval brain)).
Assay [2] has as its target Ank2-S–EGFP (short isoform of Ank2 containing all potential Nrg interacting domains) (Drosophila). As to the kind of experiment: co-IP; S2 cells co-transfected with act5C–Gal4, UAS–Ank2-S–EGFP and UAS–Nrg–3xHA; IP of Nrg180-HA proteins using Ank2-S–GFP; blots with anti-HA and anti-GFP; four independent IPs quantified (Odyssey2.1).
Assay [3] has as its target Ankyrin2, large isoform (Ank2-L) (Drosophila (endogenous in larval brain)). The source holds these as a separate data set.

In assay [1], “Nrg180-HA Y-F (tyrosine of the FIGQY motif replaced with phenylalanine) (from UniProt P20241-1 24-1302) (natural protein)” yielded an FRAP of GFP-tagged Nrg180^Y-F in motoneurons in vivo (ok371–Gal4): mobility against wild type (fold against wild type) greater than 1.5. This molecule also had a decrease in binding capacities compared to wild-type in assay [2] of 30%. Molecule “Nrg180-HA Y-A (tyrosine of the FIGQY motif replaced with alanine) (from UniProt P20241-1 24-1302) (natural protein)” gave an FRAP of GFP-tagged Nrg180^Y-A in motoneurons in vivo (ok371–Gal4): mobility against wild type (fold against wild type) in assay [1] greater than 1.5. Moreover, the decrease in binding capacities compared to wild-type in assay [2] was found to be 90%. Turning to “Nrg180-HA Y-D (tyrosine of the FIGQY motif replaced with aspartate) (from UniProt P20241-1 24-1302) (natural protein)”, the FRAP of GFP-tagged Nrg180^Y-D in motoneurons in vivo (ok371–Gal4): mobility against wild type (fold against wild type) in assay [1] was greater than 1.5. The molecule further gave a decrease in binding capacities compared to wild-type in assay [2] of 70%. Regarding “Nrg180-HA ΔFIGQY (entire FIGQY motif deleted) (from UniProt P20241-1 24-1302) (natural protein)”, the FRAP of GFP-tagged Nrg180^ΔFIGQY in motoneurons in vivo (ok371–Gal4): mobile fraction in assay [3] amounted to 80%.

B1: Nrg180-HA, wild type (UAS–Nrg–3xHA) (natural protein)
chain: KGNRPPRITKQPAPGELLFKVAQQNKESDNPFIIECEADGQPEPEYSWIKNGKKFDWQAYDNRMLRQPGRGTLVITIPKDEDRGHYQCFASNEFGTATSNSVYVRKAELNAFKDEAAKTLEAVEGEPFMLKCAAPDGFPSPTVNWMIQESIDGSIKSINNSRMTLDPEGNLWFSNVTREDASSDFYYACSATSVFRSEYKIGNKVLLDVKQMGVSASQNKHPPVRQYVSRRQSLALRGKRMELFCIYGGTPLPQTVWSKDGQRIQWSDRITQGHYGKSLVIRQTNFDDAGTYTCDVSNGVGNAQSFSIILNVNSVPYFTKEPEIATAAEDEEVVFECRAAGVPEPKISWIHNGKPIEQSTPNPRRTVTDNTIRIINLVKGDTGNYGCNATNSLGYVYKDVYLNVQAEPPTISEAPAAVSTVDGRNVTIKCRVNGSPKPLVKWLRASNWLTGGRYNVQANGDLEIQDVTFSDAGKYTCYAQNKFGEIQADGSLVVKEHTRITQEPQNYEVAAGQSATFRCNEAHDDTLEIEIDWWKDGQSIDFEAQPRFVKTNDNSLTIAKTMELDSGEYTCVARTRLDEATARANLIVQDVPNAPKLTGITCQADKAEIHWEQQGDNRSPILHYTIQFNTSFTPASWDAAYEKVPNTDSSFVVQMSPWANYTFRVIAFNKIGASPPSAHSDSCTTQPDVPFKNPDNVVGQGTEPNNLVISWTPMPEIEHNAPNFHYYVSWKRDIPAAAWENNNIFDWRQNNIVIADQPTFVKYLIKVVAINDRGESNVAAEEVVGYSGEDRPLDAPTNFTMRQITSSTSGYMAWTPVSEESVRGHFKGYKIQTWTENEGEEGLREIHVKGDTHNALVTQFKPDSKNYARILAYNGRFNGPPSAVIDFDTPEGVPSPVQGLDAYPLGSSAFMLHWKKPLYPNGKLTGYKIYYEEVKESYVGERREYDPHITDPRVTRMKMAGLKPNSKYRISITATTKMGEGSEHYIEKTTLKDAVNVAPATPSFSWEQLPSDNGLAKFRINWLPSTEGHPGTHFFTMHRIKGETQWIRENEEKNSDYQEVGGLDPETAYEFRVVSVDGHFNTESATQEIDTNTVEGPIMVANETVANAGWFIGMMLALAFIIILFIIICIIRRNRGGKYDVHDRELANGRRDYPEEGGFHEYSQPLDNKSAGRQSVSSANKPGVESDTDSMAEYGDGDTGQFTEDGSFIGQYVPGKLQPPVSPQPLNNSAAAHQAAPTAGGSGAAGSAAAAGASGGASSAGGAAASNGGAAAGAVATYV
In turn, B1 gave an FRAP of GFP-tagged Nrg180 in motoneurons in vivo (ok371–Gal4): mobile fraction (% of total protein) in assay [3] of 40.
